The nanobody polyreactivity screen of Harvey et al. (2022)

Test: yeast display, Sf9 membrane polyspecificity reagent, FACS + sequencing; frameworks hold sequencing errors
How it was run: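 Galactose-induced (36–48 hours) yeast carrying a synthetic nanobody display library were exposed to 10% biotinylated, detergent-solubilized Sf9 membrane reagent at 4 °C for 1 hour. FACS followed streptavidin microbead enrichment, using low and high (top ~1%) gates for expression (anti-HA) and reagent binding (streptavidin). Colony PCR, MiSeq 2 × 250 sequencing and CDR-length filtering followed. Labels for polyreactivity reflect the gate of origin.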

Row | Sequence | polyreactivity (PSR sort gate)
1 | QVQLVESGGGLVQAGGSLRLSCAASGRTFDVYAMAWYRQAPGKERELVATISWRGTSTYYADSVKGRFTISRDNAKNTVYLQMNSLKPADTAVYYCAKDPQPDLYGSWGQGTQVTVSS | high polyreactivity
2 | QVQLVESGGGLVQAGGSLRLSCAASGRTFDVYAMGWYRPAPGKERELVAAITSGGSTYYADSVKGRYTISRDNAKNTVFLLINSLKPEDTAVYYCATDVDKSLYDYWGQGTQVTVSS | low polyreactivity
3 | QVQLVESGGGLVQAGGSLRLSCAASGRTFDVYTMGWYRHAAGKERELVAAITARGARTYYADSVKGRFTISRDNAKNTVYLQMNSLKPEDTAVYYCAAKSYRHSLYDYWGQGTQVTVSS | high polyreactivity
4 | QVQLVESGGGLVQAGGSLRLSCAASGRTFDWYAMGWYRPAPGKERELVAAISRSGGSTYYADSVKGRFTISLDNAKNTVYLQMNSLKPEDTAVYYCAKRYAPDSRYYYWGQGTQVTVSS | high polyreactivity
5 | QVQLVESGGGLVQAGGSLRLSCAASGRTFDWYVMGWYRQAPGKERELVASIRGTGSTYYADSVKGRFTISRDNAKNTVYLQMNSLKPEDTAVYYCAARPGYLYSKYNYWGQGTQVTVSS | high polyreactivity
6 | QVQLVESGGGLVQAGGSLRLSCAASGRTFDYNAMGWYRPAPGKERELVAAISRSGGSTYYADSVKGRFTISRDNAKNTVYLQMNRLKPEDTAVYYCAADNYYLFALYEYGYWGQGTQVTVSS | high polyreactivity
7 | QVQLVESGGGLVQAGGSLRLSCAASGRTFDYNAMGWYRQAPGKEREMVAAISSSGGSTYYADSVKGRFTISRDNAKNTVYLQMNSLKPEDTAVYYCATLYPRISIYYYWGQGTQVTVSS | high polyreactivity
8 | QVQLVESGGGLVQAGGSLRLSCAASGRTFDYYAMGWFRQAPGKERELVAAISSSGGRTYYADSVKGRFTISRDNAKNTVYLQMNSLKPEDTAVYYCNAVVSRNYEYWGQGTQVTVSS | high polyreactivity
9 | QVQLVESGGGLVQAGGSLRLSCAASGRTFEGNAMGWSRQAPGKERELVAAISGSGGRTYYADSVKGRFTISRDNAKNTVYLQMNSLKPEDTAVYYATLYSVYNPWRFNYWGQGTQVTVSS | high polyreactivity
10 | QVQLVESGGGLVQAGGSLRLSCAASGRTFEGNAMGWYRQSPGKERELVAAIRWRGGRTYYADSVKGRFTISRDNAKNTVYLQLNSLNPEDTAVYYCAAAGLPPPDNDYWGQGTQVTVSS | low polyreactivity
11 | QVQLVESGGGLVQAGGSLRLSCAASGRTFEIYAIGWYSKAPGKERELVAAISSGGSTYYADSVKGRFTISRDNAKNTVYLQMNSLKPEDTAVYYCAVRWYDQVSRRGIGYYWGQGTQVTVSS | low polyreactivity
12 | QVQLVESGGGLVQAGGSLRLSCAASGRTFEKYVMGWYRQAPGKERELVASISKRGGSTYYADSVKGRFTISRDNAKNTVYLQMNSLKPEDTAVYYCNKDSRASPYGYWGQGTQVTVSS | high polyreactivity
13 | QVQLVESGGGLVQAGGSLRLSCAASGRTFEPNAMGWYRQAPGKEREFVAAISWDGGDTYYADSVKGRFTISRDNAKNTVYLQMNSLKPEDTAVYYCAKSTLYSVEYDYWGQGTQVTVSS | low polyreactivity
14 | QVQLVESGGGLVQAGGSLRLSCAASGRTFEQYAMGWSRQAPGKERELVAAISGSGGSTFYADSVKGRFTISRDNAKNTVYLQMNSLKPEDTAVYYCNAPGDGYLYDHTYDYWGQGTQVTVSS | low polyreactivity
15 | QVQLVESGGGLVQAGGSLRLSCAASGRTFERYALGWYRQAPGKERELVAAIDFSGGSTSYADSVKGRFTISRDNAKNTVYLQMNSLKPEDTAVYYCAARETAHGGKEDDYWGQGTQVTVSS | low polyreactivity
16 | QVQLVESGGGLVQAGGSLRLSCAASGRTFERYAMGWYRQAPGKERELVATITRRGGSTYYADSVKGRFTISRDNAKNTVYLQMNSLKPEDTAVYYCNADNQAYRIYARGYWGQGTQVTVSS | high polyreactivity
17 | QVQLVESGGGLVQAGGSLRLSCAASGRTFESNAMGWYRQAPGKERELVAAISYGGGTTHYADSVKGRFTISRDNAKNTVYLQMNSLKPEDTAVYYCAADPEHQWESVTIGEYDYWGQGTQVTVSS | low polyreactivity
18 | QVQLVESGGGLVQAGGSLRLSCAASGRTFESNAMGWYRQAPGKERELVAGITSGGITNYADSVKGRFTISRDNAKNTVYLQMISLKPEDTAVYYCEFYYWGQGTQVTVSS | low polyreactivity
19 | QVQLVESGGGLVQAGGSLRLSCAASGRTFESNAMGWYRQAPGKERELVAGITSGGITNYADSVKGRFTISRDNAKNTVYLQMNSLKPEDTAVYYCEFYYWGQGTQVTVSS | low polyreactivity
20 | QVQLVESGGGLVQAGGSLRLSCAASGRTFESNAMGWYRQAPGKERELVASITDGGSTNYADSVKGRFTISRDNAKNTVYLQMNSLKPEDSAVYYCNVTKRGSLWSVPDQTYDYWGQGTQVTVSS | low polyreactivity
21 | QVQLVESGGGLVQAGGSLRLSCAASGRTFESYAMGWYRQAPGTERELVAAITWSGGDTYYADSVKGRFTISRDNAKNTVYLQMNSLKPEETAVYYCAKEQGLYSVSPYDYWGQGTQVTVSS | low polyreactivity
22 | QVQLVESGGGLVQAGGSLRLSCAASGRTFEYYAMGWYRQAPGKERDLVAAISTSGGSTYYADSVKGRFTISRDNAKNTVYLQMNSLKPEDTAVYYCNKVQSTANDYWGQGTQVTVSS | low polyreactivity

Row | Sequence | polyreactivity (PSR sort gate)
23 | QVQLVESGGGLVQAGGSLRLSCAASGRTFFGNAMGWYRQAPGKERELVAVISQGGGSTYYADSVKGRFTISRDNAKNTVYLQMNSLKPEDTAVYYCAKRYPHVGSGQLGGTYNYWGQGTQVTVSS | low polyreactivity
24 | QVQLVESGGGLVQAGGSLRLSCAASGRTFFGYAMGWYIQAPGKERELVAAITWNGGRTYYADSVRGRFTISRDNAKNTVYLQMNSLKPEDTAVYYCAARVGDGVRRYNYWGQGTQVTVSS | high polyreactivity
25 | QVQLVESGGGLVQAGGSLRLSCAASGRTFFGYAMGWYRQAPGKERELVAAISGGGRTNYADSVKGRFTISRDNAKNTVYLQMNSLKPEDTAVYYCAARLVKYFRPYDYWGQGTQVTVSS | high polyreactivity
26 | QVQLVESGGGLVQAGGSLRLSCAASGRTFFGYAMGWYRQAPGKERELVAAISSGGSTYYADSVKGRFTISRDNAKNTVYLQMYSLKPEDTAVYYCATAFYYYTSGTTLLFRYDYWGQGTQVTVSS | low polyreactivity
27 | QVQLVESGGGLVQAGGSLRLSCAASGRTFFKIAMGWYRQAPGKERELVASISSRSGTTYYADSVKGRFTISRDNAKNTVYLQMNSLKPEDTAVYYCAASRNRYSYGYWGQGTQVTVSS | high polyreactivity
28 | QVQLVESGGGLVQAGGSLRLSCAASGRTFFKNAMGWYRQAPGKERELVASISSRSGTTYYADSVKGRFTISRDNAKNTVYLQMNSLKPEDTAVYYCAADIYWWRGSTHGMDYWGQGTQVTVSS | high polyreactivity
29 | QVQLVESGGGLVQAGGSLRLSCAASGRTFFKYAMGWYRQAPGKERELVAAITGRGGSTYADSVKGRFTISRDNAKNTVYLQMNSLKPEDTAVYYCAKVYQRGAQYYYYKYDYWGQGTQVTVSS | high polyreactivity
30 | QVQLVESGGGLVQAGGSLRLSCAASGRTFFKYAMGWYRQEPGKERELVASISRTGGGSTYYADSVKGRFTISRDNAKNTVYLQMNSLQPEDTAVYYCNKYTYRGRTGEFNYWGQGTQVNVSS | high polyreactivity
31 | QVQLVESGGGLVQAGGSLRLSCAASGRTFFLYAMGWYRQAPGKEREFVATISYGGGSTYYADSVKGRFTISRDNAKNTVYLQMNSLKPDDTAVYYCNALNTSQYAEGTSDYDGNMGYWGQGTQVTVSS | low polyreactivity
32 | QVQLVESGGGLVQAGGSLRLSCAASGRTFFLYTIGWYRQAPGKEREFVAAITTIGGSTYYADSVKGRFTISRDNAKNTVSLQMHSLKPEDTAVYYCNARVGPELHDYWGQGTQVTVSS | low polyreactivity
33 | QVQLVESGGGLVQAGGSLRLSCAASGRTFFNYAMGWYRQAPGKERELVAAISFSDGSTYYADSVKGRFTISRDNAKNTVYLQMNSLKPEDTADYYCAAQPGRRAGRSGFDYWGQGTQVTVSS | high polyreactivity
34 | QVQLVESGGGLVQAGGSLRLSCAASGRTFFPNAMGWYRQAPGKERELVAAISSGGGGTYYADSVKGRFTISRDNAKNTVYLQMISLKPEDTAVYYCAARNSKVEEEGNYWGQGTQVTVSS | low polyreactivity
35 | QVQLVESGGGLVQAGGSLRLSCAASGRTFFPYAMGWYRQAPGKEREFVAAITKTDDSTYYADSVKGRFTISRDNAKNTVYLQMNSLKPEDTAVYYCAADTSRSVSVFIVWYWLGYWGQGTQVTVSS | low polyreactivity
36 | QVQLVESGGGLVQAGGSLRLSCAASGRTFFPYAMGWYRQAPGKEREFVAAITKTDDTTYYADSVKGRFTISRDNAKNTVYLQMNSLKPEDTAVYYCNAGDTQIRFYYWGQGTQVNVSS | low polyreactivity
37 | QVQLVESGGGLVQAGGSLRLSCAASGRTFFQYAMGWYRQAPGKERELVAAIRWSDSTYYADSVKGRFTISRDNAKNTVYLQMNSLKPEDTAVYYCAAPRVSQYSTKKYDYWGQGTQVTVSS | low polyreactivity
38 | QVQLVESGGGLVQAGGSLRLSCAASGRTFFQYAMGWYRQAPGKERELVATIRSGGSTYYADSVKGRFTISRDNAKNTVYLQMNSLKPEDTAVYYCATRYTRFRHFDYWGQGTQVTVSS | low polyreactivity
39 | QVQLVESGGGLVQAGGSLRLSCAASGRTFFRNTMGWYRQAPGKERELVATISSSGGSTYYADSVKGRFTISRDNAKNTVYLQMNSLKPEDTAVYYCAAAPSKWYYGYGYWGQGTQVTVSS | high polyreactivity
40 | QVQLVESGGGLVQAGGSLRLSCAASGRTFFRYAMGWYRQAPGKERELVAVITRGGSTYYADSVKGRFTISRDNAKNTVYLQMNSLKPEDTAVYYCNADGRVQRKYDYWGQGTQVTVSS | high polyreactivity
41 | QVQLVESGGGLVQAGGSLRLSCAASGRTFFSNAMGWYRQAPGKERELVAAISNGDNTYYADSVKGRFTISRDNAKNTVYLQMNSLKPEDTAVYYCAKDYRWVWRKYGYWGQGTQVTVSS | low polyreactivity
42 | QVQLVESGGGLVQAGGSLRLSCAASGRTFFSYTMGWYRQAPGKERELVAAISDSDGRTYYADSVKGRFTISRDNAKNTVYLQMNSLKPEDTAVYYCAAVPDKYWSRVRRYLFEHNYWGQGTQVTVSS | low polyreactivity
43 | QVQLVESGGGLVQAGGSLRLSCAASGRTFFTNALGGYRQAPGKVRELVASINSGGNTTYADSVKGRFTISRDNAKNTVYLQINSLKPEDTAVSYCAAVRSAQRWRRYYYGGQGTQVTVSS | low polyreactivity
